Measured values taken from paper PMC9482650, “Quantitative fragmentomics allow affinity mapping of interactomes” (Nature Communications, 2022).
One block for each binder: values may come before it.

How the values were obtained:
Assay in all cases: holdup assay
Set-up in all cases: key: below the threshold = too weak to quantify, mostly under pKd 3.1 to 4
[1] = target: T1, APBA1_1, Q02410
T1 sequence (Q02410 651-752, limits assumed, looked up): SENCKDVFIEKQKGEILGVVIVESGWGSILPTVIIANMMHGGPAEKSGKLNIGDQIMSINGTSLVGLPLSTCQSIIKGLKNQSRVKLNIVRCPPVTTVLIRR

[2] = target: ARHGEF12, Q9NZN5-2
[3] = target: DLG1_1, Q12959
[4] = target: T2, DLG3_1, Q92796
T2 sequence (Q92796 125-227, limits assumed, looked up): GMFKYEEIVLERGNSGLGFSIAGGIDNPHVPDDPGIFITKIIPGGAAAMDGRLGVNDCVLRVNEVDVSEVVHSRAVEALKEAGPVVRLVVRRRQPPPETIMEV

[5] = target: T3, DLG3_3, Q92796
T3 sequence (Q92796 374-475, limits assumed, looked up): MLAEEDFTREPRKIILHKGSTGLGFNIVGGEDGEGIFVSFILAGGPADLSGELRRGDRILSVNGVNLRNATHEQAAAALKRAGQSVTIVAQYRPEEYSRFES

[6] = target: FRMPD3, Q5JV73
[7] = target: FRMPD4, Q14CM0
[8] = target: GIPC2, Q8TF65
[9] = target: T4, GRIP1_3, Q9Y3R0
T4 sequence (Q9Y3R0 247-346, limits assumed, looked up): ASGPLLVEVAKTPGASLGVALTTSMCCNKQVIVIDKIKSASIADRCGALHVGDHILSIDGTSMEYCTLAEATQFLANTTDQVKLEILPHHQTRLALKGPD

[10] = target: T5, GRIP1_5, Q9Y3R0
T5 sequence (Q9Y3R0 568-668, limits assumed, looked up): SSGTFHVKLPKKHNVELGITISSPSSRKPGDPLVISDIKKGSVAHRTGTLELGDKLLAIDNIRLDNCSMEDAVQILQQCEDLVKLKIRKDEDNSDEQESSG

[11] = target: IL16_3, Q14005
[12] = target: IL16_4, Q14005
[13] = target: Inadl_3, Q8NI35
[14] = target: Inadl_4, Q8NI35
[15] = target: Inadl_9, Q8NI35
[16] = target: LAP2, Q96RT1
[17] = target: T6, LNX2_2, Q8N448
T6 sequence (Q8N448 334-432, limits assumed, looked up): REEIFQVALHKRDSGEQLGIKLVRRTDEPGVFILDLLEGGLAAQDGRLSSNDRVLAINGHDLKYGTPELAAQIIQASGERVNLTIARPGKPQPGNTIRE

[18] = target: MAGI1_2, Q96QZ7
[19] = target: MAGI2_2, Q86UL8
[20] = target: MAGI2_5, Q86UL8
[21] = target: T7, MPDZ_12, O75970
T7 sequence (O75970 1857-1958, limits assumed, looked up): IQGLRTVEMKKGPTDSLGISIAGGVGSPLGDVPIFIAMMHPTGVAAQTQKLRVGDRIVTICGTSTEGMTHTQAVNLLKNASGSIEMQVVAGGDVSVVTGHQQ

[22] = target: T8, MPDZ_5, O75970
T8 sequence (O75970 695-796, limits assumed, looked up): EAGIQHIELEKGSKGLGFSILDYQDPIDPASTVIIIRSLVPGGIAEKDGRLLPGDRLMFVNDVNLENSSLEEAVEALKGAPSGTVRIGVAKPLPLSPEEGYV

[23] = target: NOS1, P29475
[24] = target: T9, PCLO, Q9Y6V0
T9 sequence (Q9Y6V0 4491-4600, limits assumed, looked up): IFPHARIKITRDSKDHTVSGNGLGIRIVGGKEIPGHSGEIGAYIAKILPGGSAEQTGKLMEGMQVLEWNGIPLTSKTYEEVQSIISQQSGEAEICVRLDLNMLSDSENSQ

[25] = target: T10, PDZRN3_1, Q9UPQ7
T10 sequence (Q9UPQ7 244-349, limits assumed, looked up): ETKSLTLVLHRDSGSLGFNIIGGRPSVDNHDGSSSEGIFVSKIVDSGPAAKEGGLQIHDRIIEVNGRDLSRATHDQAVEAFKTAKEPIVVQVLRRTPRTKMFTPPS

[26] = target: T11, RHPN1, Q8TCX5
T11 sequence (Q8TCX5 508-602, limits assumed, looked up): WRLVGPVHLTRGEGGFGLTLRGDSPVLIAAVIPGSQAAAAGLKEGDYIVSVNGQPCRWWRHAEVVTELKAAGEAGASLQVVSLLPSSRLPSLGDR

[27] = plain residues with an end cap or a label only (N-terminal biotin on a linker: ado-ado)
[28] = plain residues with an end cap or a label only (N-terminal biotin on a linker: ttds)

Sequence of MAGI2_5, Q86UL8 (Q86UL8 915-1017): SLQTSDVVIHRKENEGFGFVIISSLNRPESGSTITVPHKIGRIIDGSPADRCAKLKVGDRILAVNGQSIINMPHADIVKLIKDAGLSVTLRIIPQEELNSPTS
Sequence of ARHGEF12, Q9NZN5-2 (Q9NZN5 other isoform, or with tags, fused parts or gaps): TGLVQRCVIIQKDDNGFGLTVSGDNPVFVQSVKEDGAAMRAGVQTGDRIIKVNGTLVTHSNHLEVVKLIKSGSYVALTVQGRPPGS
Sequence of NOS1, P29475 (P29475 9-101): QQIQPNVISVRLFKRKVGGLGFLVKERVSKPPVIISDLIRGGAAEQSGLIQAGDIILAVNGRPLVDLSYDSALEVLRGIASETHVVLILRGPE
Sequence of FRMPD4, Q14CM0 (Q14CM0 67-160): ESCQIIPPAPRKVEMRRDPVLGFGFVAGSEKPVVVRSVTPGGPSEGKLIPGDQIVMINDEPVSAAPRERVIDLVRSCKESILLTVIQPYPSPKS
Sequence of Inadl_9, Q8NI35 (Q8NI35 1530-1615): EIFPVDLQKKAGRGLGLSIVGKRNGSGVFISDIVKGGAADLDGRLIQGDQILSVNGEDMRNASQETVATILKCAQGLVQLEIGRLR
Sequence of Inadl_4, Q8NI35 (Q8NI35 547-651): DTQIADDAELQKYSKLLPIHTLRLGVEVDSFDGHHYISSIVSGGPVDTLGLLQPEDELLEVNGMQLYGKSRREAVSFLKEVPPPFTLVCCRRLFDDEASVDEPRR
Sequence of IL16_3, Q14005 (Q14005 1107-1207): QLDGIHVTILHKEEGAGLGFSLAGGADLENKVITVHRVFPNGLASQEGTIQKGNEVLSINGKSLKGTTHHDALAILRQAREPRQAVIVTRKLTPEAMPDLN
Sequence of MAGI2_2, Q86UL8 (Q86UL8 410-522): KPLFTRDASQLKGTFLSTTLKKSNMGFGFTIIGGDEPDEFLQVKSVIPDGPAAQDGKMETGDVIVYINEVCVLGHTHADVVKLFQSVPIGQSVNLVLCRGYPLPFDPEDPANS
Sequence of LAP2, Q96RT1 (Q96RT1 other isoform, or with tags, fused parts or gaps): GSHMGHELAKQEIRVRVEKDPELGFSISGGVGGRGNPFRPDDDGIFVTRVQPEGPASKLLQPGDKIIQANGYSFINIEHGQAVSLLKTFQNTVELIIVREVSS
Sequence of FRMPD3, Q5JV73 (Q5JV73 12-100): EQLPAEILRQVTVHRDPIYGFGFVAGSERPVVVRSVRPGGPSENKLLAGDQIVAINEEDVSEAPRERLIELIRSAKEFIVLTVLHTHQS
Sequence of Inadl_3, Q8NI35 (Q8NI35 359-469): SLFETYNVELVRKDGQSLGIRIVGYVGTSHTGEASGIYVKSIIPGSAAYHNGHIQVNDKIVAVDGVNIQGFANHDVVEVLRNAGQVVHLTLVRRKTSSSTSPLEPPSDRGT
Sequence of MAGI1_2, Q96QZ7 (Q96QZ7 456-580): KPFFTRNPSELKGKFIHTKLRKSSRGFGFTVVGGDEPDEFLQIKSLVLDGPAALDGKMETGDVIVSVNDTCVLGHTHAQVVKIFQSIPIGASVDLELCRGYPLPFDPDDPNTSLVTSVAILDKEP
Sequence of GIPC2, Q8TF65 (Q8TF65 112-203): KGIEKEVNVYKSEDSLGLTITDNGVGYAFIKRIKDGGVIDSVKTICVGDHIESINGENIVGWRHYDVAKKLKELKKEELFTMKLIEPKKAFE
Sequence of IL16_4, Q14005 (Q14005 1229-1329): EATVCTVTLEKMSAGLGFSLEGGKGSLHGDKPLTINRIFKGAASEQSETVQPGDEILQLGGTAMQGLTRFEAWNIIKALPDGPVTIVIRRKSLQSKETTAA

- pKd [1, 27]: below the threshold
- pKd [2, 27]: below the threshold
- pKd [3, 27]: below the threshold
- pKd [4, 27]: below the threshold
- pKd [5, 27]: below the threshold
- pKd [6, 27]: below the threshold
- pKd [7, 27]: below the threshold
- pKd [8, 27]: below the threshold
- pKd [9, 27]: below the threshold
- pKd [10, 27]: below the threshold
- pKd [11, 27]: below the threshold
- pKd [12, 27]: below the threshold
- pKd [13, 27]: below the threshold
- pKd [14, 27]: below the threshold
- pKd [15, 27]: 4.08
- pKd [16, 27]: below the threshold
- pKd [17, 27]: below the threshold
- pKd [18, 27]: below the threshold
- pKd [19, 27]: 4.38
- pKd [20, 27]: below the threshold
- pKd [21, 27]: below the threshold
- pKd [22, 27]: below the threshold
- pKd [23, 27]: 3.76
- pKd [24, 27]: below the threshold
- pKd [25, 27]: 3.56
- pKd [26, 27]: below the threshold
Binder: SQDPKKPSRV [CBY2, Q8NA61]

- pKd [1, 28]: below the threshold
- pKd [2, 28]: below the threshold
- pKd [3, 28]: 3.63
- pKd [4, 28]: below the threshold
- pKd [5, 28]: below the threshold
- pKd [6, 28]: 3.6
- pKd [7, 28]: 4.7
- pKd [8, 28]: below the threshold
- pKd [9, 28]: below the threshold
- pKd [10, 28]: below the threshold
- pKd [11, 28]: below the threshold
- pKd [12, 28]: below the threshold
- pKd [13, 28]: below the threshold
- pKd [14, 28]: below the threshold
- pKd [15, 28]: below the threshold
- pKd [16, 28]: below the threshold
- pKd [17, 28]: 3.48
- pKd [18, 28]: below the threshold
- pKd [19, 28]: below the threshold
- pKd [20, 28]: below the threshold
- pKd [21, 28]: below the threshold
- pKd [22, 28]: below the threshold
- pKd [23, 28]: below the threshold
- pKd [24, 28]: below the threshold
- pKd [25, 28]: below the threshold
- pKd [26, 28]: 4.1
Binder: DLDEEEDTHL [PODXL, O00592]

- pKd [1, 28]: below the threshold
- pKd [2, 28]: 4.34
- pKd [3, 28]: 4.08
- pKd [4, 28]: 3.49
- pKd [5, 28]: 4.01
- pKd [6, 28]: below the threshold
- pKd [7, 28]: 4.1
- pKd [8, 28]: below the threshold
- pKd [9, 28]: below the threshold
- pKd [10, 28]: below the threshold
- pKd [11, 28]: below the threshold
- pKd [12, 28]: 3.58
- pKd [13, 28]: below the threshold
- pKd [14, 28]: below the threshold
- pKd [15, 28]: below the threshold
- pKd [16, 28]: below the threshold
- pKd [17, 28]: below the threshold
- pKd [18, 28]: 3.76
- pKd [19, 28]: 3.83
- pKd [20, 28]: below the threshold
- pKd [21, 28]: below the threshold
- pKd [22, 28]: below the threshold
- pKd [23, 28]: 3.82
- pKd [24, 28]: below the threshold
- pKd [25, 28]: 4.84
- pKd [26, 28]: below the threshold
Binder: GARVSKETPL [MAPK12, P53778]
